Measurements: US20260226524A1, “GLUTAMINE SYNTHETASE MARKER FOR RECOMBINANT EXPRESSION” (priority 2023, published 2026)

Key:
[1] = test system: Chinese Hamster Ovary CHO-K1 (CCL-61) host cell; experiment: Flow cytometry analysis of GS expression via UnaG fluorescence in electroporated cell pools; type: cell-based; details: about 3 weeks post-seeding, MSX selection, FIGS. 3A-3B
Description: Vector design: Nearly all selectable marker currently used in GS system is Cricetulus griseus-derived GS. To investigate whether the GS from other species further improve titer or screening efficiency, a set of vectors were designed as described below: • a sequence coding for an eel green fluorescent protein UnaG, a 2A self-cleaving peptide and a glutamine synthetase, placed under the control of the SV40 promoter; • two expression cassettes, in which the sequences coding for the heavy chain and light chain of a human anti-RANKL antibody denosumab were placed under the control of CMV promoters, respectively; • a sequence coding for a protein conferring resistance to ampicillin, for use in prokaryotic cells; and • a prokaryotic origin of replication.
(§1) The 2A self-cleaving peptide allowed relatively equal molar expression of the two products separated by it, namely, the green fluorescent protein UnaG and glutamine synthetase. After random integration, GS expression in each individual cell was evaluated by monitoring UnaG level using flow cytometry. Denosumab here served as the secreted reporter for assessing titers using selectable glutamine synthetase markers from different species. The vectors differed from one another by the GS-coding sequences, which were derived from Chinese hamster (Cricetulus griseus), koala (Phascolarctos cinerecus), vesper bat (Pipistrellus kuhlii), gerbil (Meriones unguiculatus), ostrich (Struthio camelus australis), junglefowl (Gallus gallus), pigeon (Columbia Livia), and snake (Pseudonaja textilis), respectively.
(§2) Electroporation and cell screening: Expression vectors described above were first linearized by the restriction endonuclease Pvul (there was one Pvul site in the ampicillin resistant gene). Then linearized vectors were introduced into the host cell using cell electroporator (Lonza Nuleofector 2b). The host cell was derived from ATCC wild-type Chinese Hamster Ovary CHO-K1 (CCL-61) and adapted to serum-free suspension culture at Shanghai ZhenGe Biotech Co. Ltd. 24 hours post electroporation, cell pools were plated into culture flasks or 96-well plates (approximately 1, 200 cells/well, 300 wells per condition) in the absence of or presence of MSX (50 μM).
Flow cytometry analysis of GS expression: About 3 weeks post-seeding, cell pools electroporated with GS gene from indicated species were analyzed using Attune NxT flow cytometer (FIGS. 3A-3C). […] As shown, when the GS from Chinese Hamster was used as the selectable marker, most tested cells (>98%) remained UnaG “negative” in the presence of the MSX, indicating low selection efficiency.

[2] = test system: Chinese Hamster Ovary CHO-K1 (CCL-61) host cell; experiment: Bio-Layer Interferometry (Octet) analysis of denosumab expression in supernatants of cell pools selected with GS markers; type: cell-based; details: 50 μM MSX
Procedure: Vector design: Nearly all selectable marker currently used in GS system is Cricetulus griseus-derived GS.
as §1, with “After” for “The 2A self-cleaving peptide allowed relatively equal molar expression of the two products separated by it, namely, the green fluorescent protein UnaG and glutamine synthetase. After”
as §2

B1: vesper bat GS: Pipistrellus kuhlii glutamine synthetase, SEQ ID NO: 8 (nucleotide SEQ ID NO: 17), used as selectable marker (protein, listed as Pipistrellus kuhlii)
chain: MSTSASSQLNKGIKQMYMSLPQGDKVLAMYIWIDGTGEGLRCKTRTLDSEPKSIDELPEWNFDGSSTMQSEGSNSDMYLIPVAMFRDPFRKDPNKLIFCEVFKYNHKPAETNLRYTCKRIMDMVSNQHPWFGMEQEYTLMGTDGHPFGWPSNGFPGPQGPYYCGVGADRAYGRDIVEAHYRACLYAGIKIGGTNAEVMPAQWEFQIGPCEGIEMGDHLWVARFILHRVCEDFGVIATFDPKPIPGNWNGAGCHTNFSTKAMREENGLKYIEESIERLSKRHQYHIRAYDPKGGQDNARRLTGFHETSNINDFSAGVANRSASIRIPRAVGQEKKGYFEDRRPSANCDPFAVTEALIRTCLLNETGDEPFQYKN
modifications: Vesper bat GS
[1]
  UnaG expression of cells (selection efficiency): significant amounts of cells showed positive UnaG expression
[2]; Day 20, among 300 seeded pools in 96-well plates, GS used as selectable marker
  pools expressed detectable denosumab (>0.125 ug/mL): 94.0%
[2]; Day 20, positive pools (>0.125 ug/mL), Octet ProA biosensor
  median expression value of denosumab of positive pools: 3.39 µg/mL
